Changes are numbered by the printed parent chain.
Columns and labels:
Experiment in all cases: yeast 2-hybrid; - means 60-100% of the wild type interaction
[1] = target: T1, human β-catenin (Leu218-Leu781) mutant Phe 253 to alanine, Gal-4 activation domain fusion (human, UniProt P35222 218-781)
T1 sequence: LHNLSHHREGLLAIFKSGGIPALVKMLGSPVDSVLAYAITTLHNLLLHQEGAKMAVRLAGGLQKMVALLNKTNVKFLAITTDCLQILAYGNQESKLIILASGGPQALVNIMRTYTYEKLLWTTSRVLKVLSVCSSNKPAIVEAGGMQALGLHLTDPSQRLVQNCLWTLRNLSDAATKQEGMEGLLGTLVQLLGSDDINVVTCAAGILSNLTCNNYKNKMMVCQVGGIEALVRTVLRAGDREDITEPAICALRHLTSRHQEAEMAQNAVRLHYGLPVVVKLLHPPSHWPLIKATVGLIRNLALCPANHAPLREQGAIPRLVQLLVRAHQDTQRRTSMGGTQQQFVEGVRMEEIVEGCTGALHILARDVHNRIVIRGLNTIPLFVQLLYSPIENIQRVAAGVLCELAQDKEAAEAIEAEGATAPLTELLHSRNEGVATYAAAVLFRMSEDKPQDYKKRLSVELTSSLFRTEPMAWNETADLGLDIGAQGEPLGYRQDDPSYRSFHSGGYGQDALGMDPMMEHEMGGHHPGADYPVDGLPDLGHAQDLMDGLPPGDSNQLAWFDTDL
Method: (§1) 4. Preparation and testing of mutants of β-catenin modulating the interaction with LEF-1, APC, conductin or E-cadherin The mutagenesis of β-catenin in the armadillo repeats 3–8 was carried out by means of the "mutagenesis kit" of the company Clontech according to the producer's record and the mutants were checked by sequencing (FIG. 5). In all mutants the original amino acid was substituted by alanine. For analyzing the interactions the cDNA of human β-catenin (armadillo repeat 3 up to the C-terminal end of the protein) coding for the amino acids Leu218–Leu7 µl or its mutants was cloned into the fusion vector for the activation domain of Gal-4 (pGAD424, Clontech). The cDNA for the binding domains of the interaction partners was cloned into the Lex-A fusion vector BTM 116. To this end, the cDNA of LEF-1 for the amino acids 1–99, conductin for the amino acids Ala342–ARG465; of human APC for the amino acids His1012–Glu1215 (APC 15 amino acid repeats) and for the amino acids Ser1259Asp 1400 (APC 20 amino acid repeats) and E-cadherin for the amino acids Gin773–Asp884 (cytoplasmatic domain) were amplified with the respective primers PCR. The interaction of the Lex-A hybrids with β-catenin and its mutants was quantified by means of the β-galactosidase reporter activity in the yeast 2-hybrid system (report: "Matchmaker". Clontech) (Tab. 2 and FIG. 6).

[2] = target: T2, human β-catenin (Leu218-Leu781) mutant Lys 292 to alanine, Gal-4 activation domain fusion (human, UniProt P35222 218-781)
T2 sequence: T1 sequence with A36F, K75A
Method: as §1

[3] = target: T3, human β-catenin (Leu218-Leu781) mutant Trp 383 to alanine, Gal-4 activation domain fusion (human, UniProt P35222 218-781)
T3 sequence: T1 sequence with A36F, W166A
Method: as §1

Measured: binding result

B1: LEF-1 amino acids 1-99 fused to Lex-A (vector BTM 116) (other, UniProt P0A7C2 1-202, looked up)
chain: MKALTARQQEVFDLIRDHISQTGMPPTRAEIAQRLGFRSPNAAEEHLKALARKGVIEIVSGASRGIRLLQEEEEGLPLVGRVAAGEPLLAQQHIEGHYQVDPSLFKPNADFLLRVSGMSMKDIGIMDGDLLAVHKTQDVRNGQVVVARIDDEVTVKRLKKQGNKVELLPENSEFKPIVVDLRQQSFTIEGLAVGVIRNGDWLMPQLSGGGGGGDPELCATDEMIPFKDEGDPQKEKIFAEISHPEEEGDLADIKSSLVNESEIIPASNGHEVVRQAPSSQEPYHDKAREHPDEGKHPDGGL
notes: Order of the fusion follows the vector; also called LEF-1/TCF-4
binds: all assays above

Source: patent US7067474B1, “Agents for treating human illnesses based on β-catenin, and the production and use thereof” (Max-Delbruck-Centrum fur Molekulare Medizin, priority 1998, dated 2006)
